Laboratory results as given in publication PMC3416812.

Columns and labels:
[1] = target: tubulin polymers from porcine brain tubulin fixed with glutaraldehyde (MTs (GA) or zinc-sheets (GA)) (porcine (purified from porcine brain)) (UniProt P02550)
[2] = target: tubulin polymers from porcine brain tubulin fixed with glutaraldehyde (MTs (GA) or zinc-sheets (GA)) (porcine (purified from porcine brain)) (UniProt P02550); remark: listed apart in the source
[3] = target: tubulin purified from porcine brain, polymerised without fixation (MTs, zinc-sheets or zinc-macrotubes) (porcine (purified from porcine brain)) (UniProt P02550)

| Substance | observed walking length on zinc-sheets (GA) (TIRF) [1] [nm] | velocity of single-molecule movement on MTs (GA) (TIRF, from MSD plots; pH 6.8, 25 mM potassium acetate, 1 mM ATP) [2] [nm/s] | velocity of single-molecule movement on zinc-sheets (GA) (TIRF, from MSD plots; pH 6.8, 25 mM potassium acetate, 1 mM ATP) [2] [nm/s] | velocity of single-molecule movement on MTs (TIRF, from MSD plots; pH 6.8, 25 mM potassium acetate, 1 mM ATP) [3] [nm/s] |
| --- | --- | --- | --- | --- |
| rat kinesin dimer (RK430) fused with GFP (domain or fragment) | 500 | – | – | – |
| recombinant yeast dynein dimer GFP-GST-Dyn1_(331kDa) (domain or fragment) | 500 | 35 | 35 | 36 |
